Patent US20180256699A1 (University of Texas, published 2018)
Like-named read-outs stand apart in the source and are kept apart here.

Experiments:
[1] = target: T1, HP1096*, hydrophobic domain of ACT, residues 399-1096, MBP fusion, acylated (Bordetella pertussis, UniProt J7QLC0 399-1096); experiment: ELISA: HP1096* coated equimolar with ACT, M1H5 IgG titrated from 1 nM, detected with anti-human Fc-HRP
[2] = target: T2, CAT400, catalytic domain of ACT, residues 1-400 (Bordetella pertussis, UniProt J7QLC0 1-400); experiment: ELISA: CAT400 coated equimolar with ACT, M1H5 IgG titrated from 1 nM, detected with anti-human Fc-HRP
[3] = target: T3, Bordetella adenylate cyclase toxin (ACT), full-length, acylated (Bordetella pertussis, UniProt J7QLC0 1-1706); experiment: cell-based or functional assay
[4] = target: T4, RTX751, RTX domain of ACT, residues 751-1706, non-acylated (Bordetella pertussis, UniProt J7QLC0 751-1706); experiment: method and antibody format not stated
T4 construct: Expressed without CyaC

[5] = target: RTX985, RTX domain of ACT, residues 985-1706 (Bordetella pertussis, UniProt J7QLC0 985-1706)
[6] = target: T4, RTX751, RTX domain of ACT, residues …
[7] = target: T3, Bordetella adenylate cyclase toxin …; experiment: ELISA: ACT coated, M2B10 IgG titrated from 1 nM, detected with anti-human Fc-HRP
[8] = target: T2, CAT400, catalytic domain of ACT, …; experiment: ELISA: CAT400 coated equimolar with ACT, M2B10 IgG titrated from 1 nM, detected with anti-human Fc-HRP
Bpp-RTX751 = target: T5, Bpp-RTX751 (Bordetella parapertussis); experiment: ELISA: Bpp-RTX751 coated, M2B10 IgG titrated
T5 construct: fragment

[9] = target: T4, RTX751, RTX domain of ACT, residues …; experiment: ELISA: Bp-RTX751 coated, M2B10 IgG titrated
[10] = target: T1, HP1096*, hydrophobic domain of ACT, …; experiment: ELISA: HP1096* coated equimolar with ACT, M2B10 IgG titrated from 1 nM, detected with anti-human Fc-HRP
Br-RTX751 = target: T6, Br-RTX751 (Bordetella bronchiseptica); experiment: ELISA: Br-RTX751 coated, M2B10 IgG titrated
T6 construct: fragment

B1: M1H5 chimeric IgG1/κ antibody (antibody, V domains shown)
VH: EVNLVESGGDLVKPGGSLKLSCAASGFTFSSYGMSWVRQTPDKRLEWVATISSGGTYTYYPDSVKGRFTISRDNAKNTLYLQMSSLKSEDTAMYYCAREIMRGGGYYFDYWSQGTTLTVSS
VL: DIQMIQSTSSLSASLGDRVTISCRASQDISNYLNWYQQKPDGTVKLLIYYTSRLHSGVPSRFSGSGSGTDYSLTISNLEQEDIATYFCQQGNTLPYTFGGGTKLEIKR
notes: also called M1H5 IgG; not shown: human IgG1 constant domains (IgG-Abvec vector); human kappa constant domain (Igκ-Abvec vector)
- binding result [1]: no binding (tested: 1 nM)
- binding result [2]: no binding (tested: 1 nM)

B2: M1E2 single-chain antibody fragment (scAb) (scFv, not shown: a dimerising Fc or GST)
scFv: DIVMTQSPAIMSASLGERVTMTCTASSSVSSSYLHWYQQKPGSSPKLWIYSTSNLASGVPARFSGSGSGTSYSLTISSMEAEDAATYYCHQYHRSPPTFGGGTKLEIKRGGGGGGSGGGGSGGGGSGGGGSQVQLKQSGAELVRPGTSVKVSCKASGYAFTNYLIEWVKQRPGQGLEWIGVINPGIGNTNYNEKFKGKATLTADKSSSTVYMQLSSLTSDDSAVYFCARGLNYGSSQHWYFDVWGAGTTVTVSS
- reduction of intracellular cAMP level in J774A.1 cells, scAb at 160-fold molar excess over ACT [3]: > 90%

B3: M1H1 single-chain antibody fragment (scAb) (scFv, not shown: a dimerising Fc or GST)
scFv: DIVMTQSPAIMSASLGERVTMTCTASSSVSSSYLHWYQQKPGSSPKLWIYSTSNLASGVPARFSGSGSGTSYSLTISSMEAEDAATYYCHQYHRSPPTFGGGTKLELKRGGGGGGSGGGGSGGGGSGGGGSQVQLQQSGAELVRPGTSVKVSCKASGYAFTNYLIEWVKQRPGQGLEWIGVINPGIGNTNYNEKFKGKATLTADKFSSTASMQLSSLTSDDSAVYFCARGLNYGSSQHWYFDVWGAGTSVTVSS
- reduction of intracellular cAMP level in J774A.1 cells, scAb at 160-fold molar excess over ACT [3]: > 90%

B4: M2B10 single-chain antibody fragment (scAb) (scFv)
scFv: DIVMTQSPAILSASLGERVTMTCTASSSVSSSYLHWYQQKPGSSPKLWIYSTSNLASGVPARFSGSGSGTSYSLTISSMEAEDAATYYCHQYHRSPPTFGAGTKLEIKRGGGGGGSGGGGSGGGGSGGGGSEVQLQQSGAELVRPGTSVKVSCKASGYAFTNYLIEWVKQRPGQGLEWIGVINPGIGNTNYNEKFKGKATLTADKSSSTVYMQLSSLTSDDSAVYFCARGLNYGSSQHWYFDVWGAGTSVTVSS
- reduction of intracellular cAMP level in J774A.1 cells, scAb at 160-fold molar excess over ACT [3]: > 90%

B5: M1F10 single-chain antibody fragment (scAb) (scFv, not shown: a dimerising Fc or GST)
scFv: DIVMTQSPASLAVSLGQRATISCRASESVGNYGISFTNWYQQKPGQPPKLLIYAASNLESGIPARFSGSGSGTDFTLNIHPVEEEDAATYYCQQSNEDPYTFGGGTKLEIKRGGGGGGSGGGGSGGGGSGGGGSEVKLVESGGDLVKPGGSLKLSCAASGFTFSSYGMSWVRQTPDKRLEWVATISSGGTYTYYPDSVKGRFTISRDNAKNTLYLQMSSLKSEDTAMYYCAREIMRGGGYYFDYWGQGTTLTVSS
- reduction of intracellular cAMP level in J774A.1 cells, scAb at 160-fold molar excess over ACT [3]: > 90%

B6: M2B10 antibody (format not stated) (antibody, V domains shown)
VH: EVQLQQSGAELVRPGTSVKVSCKASGYAFTNYLIEWVKQRPGQGLEWIGVINPGIGNTNYNEKFKGKATLTADKSSSTVYMQLSSLTSDDSAVYFCARGLNYGSSQHWYFDVWGAGTSVTVSS
VL: DIVMTQSPAILSASLGERVTMTCTASSSVSSSYLHWYQQKPGSSPKLWIYSTSNLASGVPARFSGSGSGTSYSLTISSMEAEDAATYYCHQYHRSPPTFGAGTKLEIKR
- Kd [4]: ~1200 pM
- IC50, J774A.1 macrophage cell line intoxication assay with 125 ng/mL ACT (0.7 nM) [3]: 6000 pM

B7: M2C2 antibody (format not stated) (antibody, V domains shown)
VH: QVQLQQSGPELGKPGASVKISCKASGYLFTGYNIYWVKQSHRKSLEWIGYINPYNGDTSYNQKSKGKATLTVDRSSSTAYMHLNSLTSEDSAIYFCARGYYVRPLDYWGQGTTLTVSS
VL: DIVLTQSPAIMSASLGERVTMTCTASSSVSSSYLHWYQQKPGSSPKLWIYSTSNLASGVPARFSGSGSGTSYSLTISSMEAEDAATYYCHQYHRSPPTFGGGTKLEIKR
- Kd [4]: ~1500 pM
- IC50, J774A.1 macrophage cell line intoxication assay with 125 ng/mL ACT (0.7 nM) [3]: 8100 pM

B8: M2B10 chimeric IgG1/κ antibody (antibody, V domains shown)
VH: EVQLQQSGAELVRPGTSVKVSCKASGYAFTNYLIEWVKQRPGQGLEWIGVINPGIGNTNYNEKFKGKATLTADKSSSTVYMQLSSLTSDDSAVYFCARGLNYGSSQHWYFDVWGAGTSVTVSS
VL: DIVMTQSPAILSASLGERVTMTCTASSSVSSSYLHWYQQKPGSSPKLWIYSTSNLASGVPARFSGSGSGTSYSLTISSMEAEDAATYYCHQYHRSPPTFGAGTKLEIKR
notes: also called M2B10 IgG; not shown: human IgG1 constant domains (IgG-Abvec vector); human kappa constant domain (Igκ-Abvec vector)
- EC50 (read off the curve) [5]: ~40 pM
- EC50 (read off the curve) [6]: ~40 pM
- EC50 (read off the curve) [7]: ~40 pM
- binding result [8]: no binding (tested: 1 nM)
- EC50 (read off the curve) (Bpp-RTX751): ~50 pM
- EC50 (read off the curve) [9]: ~50 pM
- binding result [10]: no binding (tested: 1 nM)
- EC50 (read off the curve) (Br-RTX751): ~50 pM

B9: M2C2 single-chain antibody fragment (scAb) (scFv, not shown: a dimerising Fc or GST)
scFv: DIVLTQSPAIMSASLGERVTMTCTASSSVSSSYLHWYQQKPGSSPKLWIYSTSNLASGVPARFSGSGSGTSYSLTISSMEAEDAATYYCHQYHRSPPTFGGGTKLEIKRGGGGGGSGGGGSGGGGSGGGGSQVQLQQSGPELGKPGASVKISCKASGYLFTGYNIYWVKQSHRKSLEWIGYINPYNGDTSYNQKSKGKATLTVDRSSSTAYMHLNSLTSEDSAIYFCARGYYVRPLDYWGQGTTLTVSS
- reduction of intracellular cAMP level in J774A.1 cells, scAb at 160-fold molar excess over ACT [3]: > 90%
